Molecular target: KARS1 (human), Q15046
Test: RNA immunoprecipitation with qRT-PCR
Conditions: remark: other sources report otherwise

KARS1 (human), Q15046, sequence (Q15046 whole entry): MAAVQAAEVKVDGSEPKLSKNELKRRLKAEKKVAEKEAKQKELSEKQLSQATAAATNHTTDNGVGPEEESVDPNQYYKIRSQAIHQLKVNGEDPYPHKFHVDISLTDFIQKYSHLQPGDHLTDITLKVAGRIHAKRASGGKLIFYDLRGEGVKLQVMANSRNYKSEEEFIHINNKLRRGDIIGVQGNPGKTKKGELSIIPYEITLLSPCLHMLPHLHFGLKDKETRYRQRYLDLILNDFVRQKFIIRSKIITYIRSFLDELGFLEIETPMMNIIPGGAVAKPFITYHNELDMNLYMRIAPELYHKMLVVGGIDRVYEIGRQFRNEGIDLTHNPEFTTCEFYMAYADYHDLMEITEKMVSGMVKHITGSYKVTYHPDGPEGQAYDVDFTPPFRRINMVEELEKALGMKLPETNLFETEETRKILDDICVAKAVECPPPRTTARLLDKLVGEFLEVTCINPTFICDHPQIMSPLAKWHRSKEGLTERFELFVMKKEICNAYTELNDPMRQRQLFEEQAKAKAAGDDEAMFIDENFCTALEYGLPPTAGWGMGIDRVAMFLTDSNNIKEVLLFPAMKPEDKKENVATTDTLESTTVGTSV

B1: AIMP1, Q12904 (natural protein)
chain: MANNDAVLKRLEQKGAEADQIIEYLKQQVSLLKEKAILQATLREEKKLRVENAKLKKEIEELKQELIQAEIQNGVKQIPFPSGTPLHANSMVSENVIQSTAVTTVSSGTKEQIKGGTGDEKKAKEKIEKKGEKKEKKQQSIAGSADSKPIDVSRLDLRIGCIITARKHPDADSLYVEEVDVGEIAPRTVVSGLVNHVPLEQMQNRMVILLCNLKPAKMRGVLSQAMVMCASSPEKIEILAPPNGSVPGDRITFDAFPGEPDKELNPKKKIWEQIQPDLHTNDECVATYKGVPFEVKGKGVCRAQTMSNSGIK
- fold enrichment of mRNA (anti-FLAG RIP over IgG): 9.7 fold
